Data as given in patent US20250084176A1 (F STAR BETA, published 2025).

T1: human OX40 (human, UniProt P43489 29-216, limits assumed)
T1 sequence (looked up): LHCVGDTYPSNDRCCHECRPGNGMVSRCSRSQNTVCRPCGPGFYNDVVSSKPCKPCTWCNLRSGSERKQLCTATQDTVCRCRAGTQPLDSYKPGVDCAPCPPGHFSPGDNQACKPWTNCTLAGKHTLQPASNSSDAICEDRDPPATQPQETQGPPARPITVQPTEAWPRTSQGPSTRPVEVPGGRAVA

T2: human GITR (human, UniProt Q9Y5U5 26-161, limits assumed)
T2 sequence (looked up): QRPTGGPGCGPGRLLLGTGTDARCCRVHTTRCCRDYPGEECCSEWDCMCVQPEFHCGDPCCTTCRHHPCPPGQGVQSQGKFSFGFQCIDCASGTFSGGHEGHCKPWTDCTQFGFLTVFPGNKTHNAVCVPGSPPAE

T3: cCD137-mFc-Avi (cynomolgus; mouse, one biotin on the Avi sequence of each monomer (BirA); unbiotinylated in the SPR of Example 5.6)
T3 construct: also called cyno CD137-mFc-Avi; dimeric cynomolgus CD137; not shown: mouse IgG2a Fc domain (mIgG2a Fc)
T3 chain: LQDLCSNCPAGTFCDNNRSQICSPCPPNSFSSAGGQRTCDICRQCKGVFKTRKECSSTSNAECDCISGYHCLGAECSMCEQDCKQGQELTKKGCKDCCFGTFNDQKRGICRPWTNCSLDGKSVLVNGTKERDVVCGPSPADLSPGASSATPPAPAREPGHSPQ


Columns and labels:
[1] = target: human CD137, full length, on cells (human, UniProt Q07011 24-255); assay: cell-based or functional assay
[2] = target: human CD40 (human, UniProt P25942 21-193); assay: SPR (Biacore T200), receptor amine-coupled to CM5 chip
Experimental: (§1) The specificity of the anti-human CD137 Fcabs for human CD137 compared to other related TNFSFR family members was tested. 8 of the Fcabs were tested in mock mAb² (HeID1.3) format and measured by SPR in a Biacore T200 (GE Healthcare) by testing for binding to other human TNFRSF receptors: CD40, OX40 and GITR. Amine coupling (amine coupling kit, GE Healthcare, BR-1000-50) was used to coat human CD40, GITR and OX40 to approximately 1000 RU in Biacore CM5 chips (GE Healthcare, cat no 29149603). […] The chip was regenerated by injection of 10 mM glycine pH 2.5 for 12 s at 30 μl/min. Antibodies specific to the different TNFRSF members were used as positive controls to verify Biacore chip coating. Data was double reference subtracted and analysed using BIAevaluation 3.2 software.

[3] = target: T1, human OX40; assay: as above
Experimental: as §1

[4] = target: T2, human GITR; assay: as above
Experimental: as §1

[5] = target: T4, hCD137-mFc-Avi (human; mouse, UniProt Q07011 24-186, one biotin on the Avi sequence of each monomer (BirA); unbiotinylated in the SPR of Example 5.6); assay: SPR (Biacore), mAb2 captured by anti-human Fab, antigen in solution, 1:1 Langmuir
T4 construct: Made in-house in HEK293-6E; also called human CD137-mFc-Avi; dimeric human CD137; not shown: mouse IgG2a Fc domain (mIgG2a Fc)
Experimental: (§2) An anti-human Fab capture antibody was immobilised on all four flow cells of a CM5 series S chip (GE Healthcare #BR-1005-30) to an average surface density of 6000 RU following the manufacturer's recommendations (GE Healthcare, human Fab capture Kit, #28958325). IEach mAb² was captured to approximately 150 RU by injecting a 3 μg/ml solution of mAb² diluted in HBS-EP+ buffer (GE Healthcare #BR1006-69) for 60 seconds at 30 μl/min. Then different concentrations of human, cyno or mouse CD137 antigen (unbiotinylated human, cyno or mouse CD137-mFc-Avi or human CD137-Avi-His) in HBS-EP+ buffer were flowed over the chip for 3 min at 60 μl/min and then allowed to dissociate for 10 minutes. After each antigen concentration the chip was regenerated by infecting 10 mM glycine pH 2.1 at a flow rate of 30 μl/min for 30 seconds. Buffer HBS-EP+ was injected before the highest concentration of antigen and after the lowest concentration of antigen for reference subtraction, and one of the concentrations at random was repeated twice. The binding kinetics were fit with a 1:1 Langmuir model to generate equilibrium binding constants (KD) for each sample. Data analysis was performed with BiaEvaluation software version 3.2.

[6] = target: T5, hCD137-Avi-His (human, UniProt Q07011 24-186, single biotin on the Avi sequence (BirA); unbiotinylated in the SPR of Example 5.6); assay: as above
T5 construct: also called human CD137-Avi-His; monomeric human CD137
Experimental: as §2

[7] = target: T3, cCD137-mFc-Avi; assay: as above
Experimental: as §2

human CD137, full length, on cells, sequence (Q07011 24-255): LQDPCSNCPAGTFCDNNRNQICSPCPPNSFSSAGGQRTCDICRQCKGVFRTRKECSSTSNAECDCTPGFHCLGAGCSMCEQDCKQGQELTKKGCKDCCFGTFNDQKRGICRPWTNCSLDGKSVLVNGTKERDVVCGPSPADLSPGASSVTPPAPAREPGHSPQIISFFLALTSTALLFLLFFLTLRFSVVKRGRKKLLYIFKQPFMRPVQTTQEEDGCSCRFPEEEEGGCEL
T4 sequence (Q07011 24-186): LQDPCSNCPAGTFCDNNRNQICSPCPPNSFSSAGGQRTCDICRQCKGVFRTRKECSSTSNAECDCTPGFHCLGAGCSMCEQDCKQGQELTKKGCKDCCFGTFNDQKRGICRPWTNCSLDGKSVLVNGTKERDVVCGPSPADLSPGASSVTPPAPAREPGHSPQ
T5 sequence (Q07011 24-186): as above
human CD40, sequence (P25942 21-193 limits assumed): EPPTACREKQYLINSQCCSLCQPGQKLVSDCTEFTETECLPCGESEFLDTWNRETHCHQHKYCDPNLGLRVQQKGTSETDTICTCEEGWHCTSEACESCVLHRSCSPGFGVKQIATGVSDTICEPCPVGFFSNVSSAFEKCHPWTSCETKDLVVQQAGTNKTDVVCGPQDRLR

Binder	NF-kB signalling, HEK.FRT.luc.hCD137, +XL (EC50 nM) [1] [nM]	binding result [2]	binding result [3]	binding result [4]	Kd [5] [nM]	Human monomeric CD137 KD fold difference relative to human dimeric KD [6] [fold]	Kd [7] [nM]
FS22-053-008/HelD1.3 (bispecific antibody, human IgG1, kappa, Mock mAb^2, IgG1 without LALA; also called FS22-053-008/HeID1.3) heavy: QVQLQESGPGLVRPSQTLSLTCTVSGSTFSGYGVNWVRQPPGRGLEWIGMIWGDGNTDYNSALKSRVTMLVDTSKNQFSLRLSSVTAADTAVYYCARERDYRLDYWGQGSLVTVSSASTKGPSVFPLAPSSKSTSGGTAALGCLVKDYFPEPVTVSWNSGALTSGVHTFPAVLQSSGLYSLSSVVTVPSSSLGTQTYICNVNHKPSNTKVDKKVEPKSCDKTHTCPPCPAPELLGGPSVFLFPPKPKDTLMISRTPEVTCVVVDVSHEDPEVKFNWYVDGVEVHNAKTKPREEQYNSTYRVVSVLTVLHQDWLNGKEYKCKVSNKALPAPIEKTISKAKGQPREPQVYTLPPSRDELNPPYLFSNQVSLTCLVKGFYPSDIAVEWESNGQPENNYKTTPPVLDSDGSFFLYSKLTVDYWRWLEGNVFSCSVMHEALHNHYTQKSLSLSPG light: DIQMTQSPASLSASVGETVTITCRASGNIHNYLAWYQQKQGKSPQLLVYNAKTLADGVPSRFSGSGSGTQYSLKINSLQPEDFGSYYCQHFWSTPRTFGGGTKLEIKRTVAAPSVFIFPPSDEQLKSGTASVVCLLNNFYPREAKVQWKVDNALQSGNSQESVTEQDSKDSTYSLSSTLTLSKADYEKHKVYACEVTHQGLSSPVTKSFNRGEC	26.3	no binding (tested: starting at 1 µM)	no binding (tested: starting at 1 µM)	no binding (tested: starting at 1 µM)	4.2	170	0.9
FS22-172-003/HelD1.3 (bispecific antibody, human IgG1, kappa, Mock mAb^2, IgG1 without LALA) heavy: QVQLQESGPGLVRPSQTLSLTCTVSGSTFSGYGVNWVRQPPGRGLEWIGMIWGDGNTDYNSALKSRVTMLVDTSKNQFSLRLSSVTAADTAVYYCARERDYRLDYWGQGSLVTVSSASTKGPSVFPLAPSSKSTSGGTAALGCLVKDYFPEPVTVSWNSGALTSGVHTFPAVLQSSGLYSLSSVVTVPSSSLGTQTYICNVNHKPSNTKVDKKVEPKSCDKTHTCPPCPAPELLGGPSVFLFPPKPKDTLMISRTPEVTCVVVDVSHEDPEVKFNWYVDGVEVHNAKTKPREEQYNSTYRVVSVLTVLHQDWLNGKEYKCKVSNKALPAPIEKTISKAKGQPREPQVYTLPPSRDELPYIIPPYNQVSLTCLVKGFYPSDIAVEWESNGQPENNYKTTPPVLDSDGSFFLYSKLTVGADRWLEGNVFSCSVMHEALHNHYTQKSLSLSPG light: DIQMTQSPASLSASVGETVTITCRASGNIHNYLAWYQQKQGKSPQLLVYNAKTLADGVPSRFSGSGSGTQYSLKINSLQPEDFGSYYCQHFWSTPRTFGGGTKLEIKRTVAAPSVFIFPPSDEQLKSGTASVVCLLNNFYPREAKVQWKVDNALQSGNSQESVTEQDSKDSTYSLSSTLTLSKADYEKHKVYACEVTHQGLSSPVTKSFNRGEC	32.6	no binding (tested: starting at 1 µM)	no binding (tested: starting at 1 µM)	no binding (tested: starting at 1 µM)	1.5	> 200	1.3
FS22-053-012/HelD1.3 (bispecific antibody, human IgG1, kappa, Mock mAb^2, IgG1 without LALA; also called FS22-053-012/HeID1.3) heavy: QVQLQESGPGLVRPSQTLSLTCTVSGSTFSGYGVNWVRQPPGRGLEWIGMIWGDGNTDYNSALKSRVTMLVDTSKNQFSLRLSSVTAADTAVYYCARERDYRLDYWGQGSLVTVSSASTKGPSVFPLAPSSKSTSGGTAALGCLVKDYFPEPVTVSWNSGALTSGVHTFPAVLQSSGLYSLSSVVTVPSSSLGTQTYICNVNHKPSNTKVDKKVEPKSCDKTHTCPPCPAPELLGGPSVFLFPPKPKDTLMISRTPEVTCVVVDVSHEDPEVKFNWYVDGVEVHNAKTKPREEQYNSTYRVVSVLTVLHQDWLNGKEYKCKVSNKALPAPIEKTISKAKGQPREPQVYTLPPSRDELNPPYLFSNQVSLTCLVKGFYPSDIAVEWESNGQPENNYKTTPPVLDSDGSFFLYSKLTVDHMRWLEGNVFSCSVMHEALHNHYTQKSLSLSPG light: DIQMTQSPASLSASVGETVTITCRASGNIHNYLAWYQQKQGKSPQLLVYNAKTLADGVPSRFSGSGSGTQYSLKINSLQPEDFGSYYCQHFWSTPRTFGGGTKLEIKRTVAAPSVFIFPPSDEQLKSGTASVVCLLNNFYPREAKVQWKVDNALQSGNSQESVTEQDSKDSTYSLSSTLTLSKADYEKHKVYACEVTHQGLSSPVTKSFNRGEC	119	no binding (tested: starting at 1 µM)	no binding (tested: starting at 1 µM)	no binding (tested: starting at 1 µM)	–	–	–
FS22-053-011/HelD1.3 (bispecific antibody, human IgG1, kappa, Mock mAb^2, IgG1 without LALA; also called FS22-053-011/HeID1.3) heavy: QVQLQESGPGLVRPSQTLSLTCTVSGSTFSGYGVNWVRQPPGRGLEWIGMIWGDGNTDYNSALKSRVTMLVDTSKNQFSLRLSSVTAADTAVYYCARERDYRLDYWGQGSLVTVSSASTKGPSVFPLAPSSKSTSGGTAALGCLVKDYFPEPVTVSWNSGALTSGVHTFPAVLQSSGLYSLSSVVTVPSSSLGTQTYICNVNHKPSNTKVDKKVEPKSCDKTHTCPPCPAPELLGGPSVFLFPPKPKDTLMISRTPEVTCVVVDVSHEDPEVKFNWYVDGVEVHNAKTKPREEQYNSTYRVVSVLTVLHQDWLNGKEYKCKVSNKALPAPIEKTISKAKGQPREPQVYTLPPSRDELNPPYLFSNQVSLTCLVKGFYPSDIAVEWESNGQPENNYKTTPPVLDSDGSFFLYSKLTVDYWRWTDGNVFSCSVMHEALHNHYTQKSLSLSPG light: DIQMTQSPASLSASVGETVTITCRASGNIHNYLAWYQQKQGKSPQLLVYNAKTLADGVPSRFSGSGSGTQYSLKINSLQPEDFGSYYCQHFWSTPRTFGGGTKLEIKRTVAAPSVFIFPPSDEQLKSGTASVVCLLNNFYPREAKVQWKVDNALQSGNSQESVTEQDSKDSTYSLSSTLTLSKADYEKHKVYACEVTHQGLSSPVTKSFNRGEC	32.8	no binding (tested: starting at 1 µM)	no binding (tested: starting at 1 µM)	no binding (tested: starting at 1 µM)	5.5	> 200	1.3
